In paper PMC516023 (2004):

B1: HIV-1 Vpr, wild type [HIV-1] / GST-fused di-W peptide WWSFKSV (GST-B4) (parent complex)
chain 1: MEQAPEDQGPQREPHNEWTLELLEELKNEAVRHFPRIWLHGLGQHIYETYGDTWAGVEAIIRILQQLLFIHFRIGCRHSRIGVTRQRRARNGASRS
chain 2: WWSFKSV

Variants of: B1
Assay: GST pull-down, autoradiography scanning; parent: 100; read off a plot

Point of comparison: chain 1 R87A, chain 1 R88A, percent of parent ~71%. Against it:
- chain 1 I63K — higher, ~80%
- chain 1 A30F — lower, ~6%
- chain 1 L23F — lower, ~10%
- chain 1 E21K — lower, ~7%
- chain 1 R62P — lower, ~4%
- chain 1 F34I — higher, ~80%
- chain 1 R80A — higher, ~88%
- chain 1 E25K — higher, ~86%
